Patent US8329653 (BUCK INSTITUTE FOR AGE RESEARCH, dated 2012)
Values belong to the binder of their own block, whether it stands above or below them.

Tests used:
[1] = molecular target: T1, endogenous mouse netrin-1 (E16.5 embryonic cortex) (mouse, UniProt O09118 25-604); test: co-immunoprecipitation of endogenous proteins from E16.5 mouse cortex
T1 construct: also called mNet1

[2] = molecular target: T2, endogenous mouse APP (embryonic cortex) (mouse, UniProt P12023 18-770); test: as above
T2 construct: whole, on cells; also called endogenous APP

[3] = molecular target: T3, Human Net 1-FlagM2 (Apotech), recombinant netrin-1 (human, UniProt O95631 25-604); test: ELISA, Aβ1-17 coated at 0.07 µg/ml, various netrin-1 concentrations
T3 construct: also called recombinant netrin-1 (Apotech Corp.); not shown: FlagM2 tag
Description: An anti-mouse antibody coupled to HRP (Jackson ImmunoResearch, Inc) was added at a concentration of 0.8 μg/ml for 1 hour at 37° C. Colorimetric intensity was measured at a wavelength of 490 nm using a Victor station (Wallac).

- binding result [1]: no binding
B1: endogenous mouse p75^ntr (E16.5 embryonic cortex) (receptor, UniProt Q9Z0W1 32-427, looked up)
chain: KETCSTGMYTHSGECCKACNLGEGVAQPCGANQTVCEPCLDSVTFSDVVSATEPCKPCTECLGLQSMSAPCVEADDAVCRCSYGYYQDEETGRCEACSVCGVGSGLVFSCQDKQNTVCEECPEGTYSDEANHVDPCLPCTVCEDTERQLRECTPWADAECEEIPGRWITRSTPPEGSDVTTPSTQEPEAPPERDLIASTVADTVTTVMGSSQPVVTRGTADNLIPVYCSILAAVVVGLVAYIAFKRWNSCKQNKQGANSRPVNQTPPPEGEKLHSDSGISVDSQSLHDQQTHTQTASGQALKGDGNLYSSLPLTKREEVEKLLNGDTWRHLAGELGYQPEHIDSFTHEACPVRALLASWGAQDSATLDALLAALRRIQRADIVESLCSESTATSPV
notes: whole, on cells; also called P75-NGFR

- binding result [2]: no binding
B2: endogenous mouse bFGF (E16.5 embryonic cortex) (ligand, UniProt P15655 10-154, looked up)
chain: PALPEDGGAAFPPGHFKDPKRLYCKNGGFFLRIHPDGRVDGVREKSDPHVKLQLQAEERGVVSIKGVCANRYLAMKEDGRLLASKCVTEECFFFERLESNNYNTYRSRKYSSWYVALKRTGQYKLGSKTGPGQKAILFLPMSAKS

- binding result [1]: no binding
B3: endogenous mouse TrkC (E16.5 embryonic cortex) (receptor)
chain: not shown
notes: whole, on cells

- Kd [3]: 30 nM
Binder: DAEFRHDSGYEVHHQKL (peptide, UniProt P05067 672-688, looked up, domain: Aβ1-17) [Aβ1-17 (the 17 first amino acids of Aβ)]
